Test results reported in the DeepSol protein solubility set.

Test: soluble on expression in E. coli; label from the status in PepcDB or PDB records

| Sequence | soluble on expression in E. coli |
| --- | --- |
| MSSVSEVNVDIKDFLMSINLEQYLLHFHESGFTTVKDCAAINDSLLQKIGISPTGHRRRILKQLQIILSKMQDIPIYANVHKTKKNDDPSKDYHVPSSDQNICIELSNSGSVQTSSPPQLETVRKNLEDSDASVERSQYPQSDDKLSPPKRDFPTAEEPHLNLGSLNDSLFGSDNIKIESLITKKTVDHTVEEQQTEKVKLITENLSKLPNADSECLSFVGCSTSGTNSGNGTNGLLEGSPPSPFFKFQGEMIVNDLYVPSSPILAPVRSRSKLVSRPSRSFLLRHRPVPEIPGSTKGVSGSYFRERRNVATSTEKSVAWQNSNEENSSSIFPYGETFLFQRLENSKKRSIKNEFLTQGEALKGEAATATNSFIIKSSIYDNRKEKISEDKVEDIWIPREDKNNFLIDTASESEYSTVEECFQSLRRKNSKASKSRTQKALILDSVNRHSYPLSSTSGNADSSAVSSQAISPYACFYGASAKKVKSGWLDKLSPQGKRMFQKRWVKFDGLSISYYNNEKEMYSKGIIPLSAISTVRVQGDNKFEVVTTQRTFVFRVEKEEERNDWISILLNALKSQSLTSQSQAVVTPEKCGYLELRGYKAKIFTVLSGNSVWLCKNEQDFKSGLGITIIPMNVANVKQVDRTVKQSFEIITPYRSFSFTAETEKEKQDWIEAVQQSIAETLSDYEVAEKIWFNESNRSCADCKAPDPDWASINLCVVICKKCAGQHRSLGPKDSKVRSLKMDASIWSNELIELFIVIGNKRANDFWAGNLQKDEELHMDSPVEKRKNFITQKYKEGKFRKTLLASLTKEELNKALCAAVVKPDVLETMALLFSGADVMCATGDPVHSTPYLLAKKAGQSLQMEFLYHNKFSDFPQHDIHSEGVLSQESSQSTFLCDFLYQAPSAASKLSSEKKLLEETNKKWCVLEGGFLSYYENDKSTTPNGTININEVICLAIHKEDFYLNTGPIFIFEIYLPSERVFLFGAETSQAQRKWTEAIAKHFVPLFAENLTEADYDLIGQLFYKDCHALDQWRKGWFAMDKSSLHFCLQMQEVQGDRMHLRRLQELTISTMVQNGEKLDVLLLVEKGRTLYIHGHTKLDFTVWHTAIEKAAGTDGNALQDQQLSKNDVPIIVNSCIAFVTQYGLGCKYIYQKNGDPLHISELLESFKKDARSFKLRAGKHQLEDVTAVLKSFLSDIDDALLTKELYPYWISALDTQDDKERIKKYGAFIRSLPGVNRATLAAIIEHLYRVQKCSEINHMNAHNLALVFSSCLFQTKGQTSEEVNVIEDLINNYVEIFEVIILYPALVKMVIMSLFANKYLCC | soluble |
| MSTKMTPPVEKNEFIDVVFEDLTHDGAGVAKVKGYPIFVKNGLPGEEAQIKIIKVKKNFAFGRLMKLHTESPYRKDAECPVYNQCGGCQLQHLTYEGQLQAKEKQVRDVMQRIGGLADVPVHPVLGMKNPWVYRNKAQVPIGEREGGLVAGFYRQGTHDIINMESCLIQAEENDTLIQEVKRICEKHGITAYNEERNKGTLRHVMARYGQVTGEIMLVFITRTAELPNKKAIIEEIAAKFPEVKSIVQNVNTKRTNVIFGDKTTVLYGSEYIYDFIGDIKFAISARSFYQVNPEQTKVLYDKTLEYAKLNGNETVIDAYCGIGSISLFLAQKAKKVYGVEIVPEAIEDANRNAALNNMTNAEFGVGEAEVVIPKWYKEGVIADTMVVDPPRKGCDEALLNTIIDMKPNRVVYVSCNPATLARDLKVLEEGGYKTQEVQPVDMFPHTTHVECVAWLKLV | not soluble |
| NKDWTLAIRGNITYNKDKWIEGELPEQRYDWMNQYGQNILGKKGYIAEGLFTQAEIDDMARWESLSQANKATTPKPFASQFGTVKAGDIKYKDLNNDGQIDAYDKTYICRGDVPTMVYGFGFTLGWKNLSLGMMFQGTHDAERIMSGSSIQPFNGGGGSGNLYSNIDDRWTEDNPNQNAFYPRLSYGAETSSNINNFQPSTWWVRDFSFLRLKTMQISYNLPKDWVNKVRLKNAAVYVMGTNLFTLSKFKLWDPELNTDNGASYPNTTSYSVGVNFTF | not soluble |
| AAEGERAEPLRPSQSGARPCRAVGNMHFSIPETESRSGDSGGSAYVAYNIHVNGVLHCRVRYSQLLGLHEQLRKEYGANVLPAFPPKKLFSLTPAEVEQRREQLEKYMQAVRQDPLLGSSETFNSFLRRAQQETQQVPTEEVSLEVLLSNGQKVLVNVLTSDQTEDVLEAVAAKLDLPDDLIGYFSLFLVREKEDGAFSFVRKLQEFELPYVSVTSLRSQEYKIVLRKSYWDSAYDDDVMENRVGLNLLYAQTVSDIERGWILVTKEQHRQLKSLQEKVSKKEFLRLAQTLRHYGYLRFDACVADFPEKDCPVVVSAGNSELSLQLRLPGQQLREGSFRVTRMRCWRVTSSVPLPSGSTSSPGRGRGEVRLELAFEYLMSKDRLQWVTITSPQAIMMSICLQSMVDELMVKKSGGSIRKMLRRRVGGTLRRSDSQQAVKSPPLLESPDATRESMVKLSSKLSAVSLRGIGSPSTDASASDVHGNFAFEGIGDEDL | soluble |
| MSLVDLVTEAKSSGEGVTSPYSRTEHCENIHEYRCDTRVGVIGIDVSKEHLVTSKGRVRKFTNNEKGYEEILTMKPNIIVIEPTGVYSTRPCQYFKERGVKVLLVSLAMERKGRKGKENRFLRRRKTEGHHHHHH | not soluble |
| MGSDKIHHHHHHMDSSAAFSNPTKLRADLLRGRLDVSVDSSTIAPDSLFGFAERRNPKRAFLFVSRVLGRHIPARPSVMLKSFQDLAHKIPVDLPGPVLVIGMAETAVGLGAGVHRAYSETHSDALYLVSTRHPTGTELFARFEEEHSHASAHLIHLPADPALRDMMLGARSLVLVDDEASTGKTFINLHQALVEAGLSKIERVVTCVLTDWSAGAVSTSMGAVAEQVSLLQGSYSFDEDVSAPLPDMPEVGTVAMGDWPLLTANDWGRMGVLAVADTLAPGLTVNKGERVLVVGTSEFVWRPFLLAERLEKAGADVHFSSTSRSPIALGHAIDHALSFSDNYGLGIPNFLYNVRPGQFDRVLICTETPRQAVPAELIEALNAEVICDE | not soluble |
| SLANIREIAKRAGISIATVSRHLNNTGYVSEDAREKIQKVVDELNYTPNALARAMFTKNSKTIGLMVPNISNPFFNQMASVIEEYAKNKGYTLFLCNTDDDKEKEKTYLEVLQSHRVAGIIASRSQCEDEYANIDIPVVAFENHILDNIITISSDNYNGGRMAFDHLYEKGCRKILHIKGPEVFEATELRYKGFLDGARAKDLEIDFIEFQHDFQVKMLEEDINSMKDIVNYDGIFVFNDIAAATVMRALKKRGVSIPQEVQIIGFDNSFIGELLYPSLTTINQPIEALAYTIIELLIKIINGEGVLIEDYIMEVKLIERETTISLKDEG | soluble |
| CEVDALKGTNESLERQMREMEENFAVEAANYQDTIGRLQDEIQNMKEEMARHLREYQDLLNVKMALDIEIATYRKLLEGEESRI | soluble |
| MERVNGEDIWQDREIRFDVDHKLLRLINGEIQVAKIEHVEDTKGNNGDRGTMRVTNLRLIWHAASMPRINITIGWNAITGVQSKQTTSLVTRNRGISNEAIYVLAKVSATTTKFEFIFTTTNPASHSKLFNTISSISRAYETTKMYRELKMRGVFIREDGTLKILPQETIIEKVNGVWNLSTETGSLGVFVITNIRVVWYAEMNIGYNVSVPYITLYSVRVRESKFGMALVLETTTSSGEYVLGFRVDPAERLQNLLKTVQSLHKAHLLKPIFGVSYVKEIAEKVEPRKDDDEIDIIDNNEDDVEIDDKIRPDAFASYFDGEHTATDEKQLPVLNPELGLAIEPIRNGFTLHDLWNIHVDV | not soluble |
| MAIESEVLVIGGGLGGLTSALAAAREGADVRLVSYKQSTLRQASGLVDVLGYTPDGDGPLTDPYEAIPSLPEAHPYRKVGVQTVRDALSLFDDAVPTYEGEHTDTNALLPTHGGSIKPTARYPAGASAGLASDTRDTLLVGIEEMVDFDAPHVAAHLDATGVPFDVRGETIRFPGDLRADAKVTRYAKLLDTNSEVAVRGRMVPAREALAQRVNPLLEDEERVGFPAILGDDNPGAIRDALGDHLGVDVFEVPMGPPSLPGLRLEDALFSALDEAGASIETGNPVVDFDGEDRIEKVFIEKNGAKIPNSADQYVLATGGFVGKGVESDREGVYEPVFDCHIPHAADRYDWFEGELFGDHEFARYGVATDDDLRPLDASEHSEFENLRAAGSVLGGYDFAAEKSGSGVSIATGYAAGQRAAQEARLEHHHHHH | soluble |
| EHIKQKNSEIAELTLQNQRDADSVEYYKALVSQDEKQKVLIHDIKKHLNAIASLNEQHDSEKIAAYLTHVLGSSELKHSVRVCDNDLLNALLCRYQKICLTKKIALHIDIRSKCIDFVTYDDLSVLFGNLMDNAVESAEKTVNPFIELNVFHKENNNMTIITLIDSCRVNPIDKNGNLLPTKKPNPQFHGFGMRSIENIVKKYNGEMTFYFDDPTKTFHTIIMLRH | not soluble |
| MPSGYGVLLATHDDDTVDVFTSGRKMRLTCSPNIDAASLKKGQTVRLNEALTVVEAGTFEAVGEISTLREILADGHRALVVGHADEERVVWLADPLIAEDLPDGLPEALNDDTRPRKLRPGDSLLVDTKAGYAFERIPKAEVEDLVLEELVPR | soluble |
| MKRLILPIACGICTVTSDAQTDKQPHPNVIFIYADDLGYKDLSCTGSRFYETPHIDKLAREGVCFTQSYAACPVSSPSRAALLTGKYPARINLTDYIPGDRAYGPHKNQRLASLPFNLHLSKDEITMAEAFRQNGYSTFMAGKWHLAESAEYYPEQNGFDINIGGNNTGHPSKGYFSPYGNPQLKDGPEGEYLTDRLTDEVIRYISEPKEKPFFVYLSYYTVHLPLQAKAEKIAKYRRKLSRAVPADSSFVKKGETYHKLVQDIPAYAAMVESLDENIGRLLDTLHRSGLDERTIVVFTSDNGGMATSNTTRNIPTSNLPLRAGKGYLYEGGIKVPAIIRWSGHLKGRQVSDTPIIGTDYYPTLLDLCGLPLLPGQHVDGVSMKPVLQGGRLSRPSLFWHYPHYSGGLGGRPSAAIREGDYKLIEFFEDHHVELYNVIQDESEEKDLSQIYPEIADGLRKKLYLWYKEVGARMPVDNPHYVSPVKDSDSFENKLEHHHHHH | not soluble |
| MTKKKLLKALAVAAIATSLVACSDSSSNDKTLTTAVSSGSSVATTTVAAPADNTNVTANASYIIGYGMGSSIATDKNIKTFNLNNDKVMAGFEDAINAKKPAIPLEDIANNMNTLRDKMQQQMNQKAVTSFLSVQDGIYNSDLTPKSDIKNPDVVVYEFFDYQCMYCSKLAPEIEKIMKDNSDVQVVFAEFPIFGQKLPASEYAAEVSTAIYKLYGADAYVKYHNGIFATGEDEGSLKNATVDNVAKQAGADMTKVNKAIQDDKIADHLKDMLKMGFGQLGIQGTPFLVIAPAKNATVANTTIIGGYTTADGIQAAINKAKSTATTTSTSNNGQTDTKQAQNDIATVTAEAQATSGSTEQLAQPR | not soluble |
| MTEVIAYLIEHFQDFDTCPPPEDLGMLLEEAGFDTMEIGNTLMMMEVLLNSSEFSAEPADSGALRVYSKEETDNLPQEVMGLMQYLIEEKAVSCEQREIIIHALMHIPGDEITVDTAKVLTLLLLWANKSELPVLVGDELMSALLLDNKPTMN | not soluble |
| MSLKLFGTDGVRGKAGEFLDSFLAMRLAMAAGIYFKDKSITNNILVGKDTRRSGYMIENAIVSGLTSIGYNVIQIGPMPTPAIAFLTEDMRCDAGIMISASHNPYYDNGIKFFDAHGNKLSEDIEKKIEEIYFDDKLIQASKVDMEKIGQAKRIDDVIGRYIVSIKNSFPKDLTLKSLRVVLDVAHGAAYKVAPTVFKELGAEVIVMSDKPNGLNINENCGALHPANLAAEVKRLRADVGFAFDGDADRLVVVDEKGEVANGDSLLGVLALYLKEQGKLQSSVVATIMSNGALKEFLNKHGIELDTCNVGDKYVLEKLKANGGNFGGEQSGHIIFSDYAKTGDGLIAALQFSALMLSKKKSASSILGQVKPYPQLLTNLKIAEKKDLDKIKGLKELKKDLENKNINTLFRYSGTENLIRLLLEARDIKLLEKEMKNVVEFFKKALNGEGHHHHHH | not soluble |
